Assay results from patent US20210190798A1 (AstraZeneca / MedImmune, published 2021).

T1: recombinant human LIFR (LIF receptor) (human, UniProt P42702 45-833, limits assumed)
T1 construct: Soluble analyte in the Octet assay and coated on ELISA plates; also called hLIFR
T1 sequence (looked up): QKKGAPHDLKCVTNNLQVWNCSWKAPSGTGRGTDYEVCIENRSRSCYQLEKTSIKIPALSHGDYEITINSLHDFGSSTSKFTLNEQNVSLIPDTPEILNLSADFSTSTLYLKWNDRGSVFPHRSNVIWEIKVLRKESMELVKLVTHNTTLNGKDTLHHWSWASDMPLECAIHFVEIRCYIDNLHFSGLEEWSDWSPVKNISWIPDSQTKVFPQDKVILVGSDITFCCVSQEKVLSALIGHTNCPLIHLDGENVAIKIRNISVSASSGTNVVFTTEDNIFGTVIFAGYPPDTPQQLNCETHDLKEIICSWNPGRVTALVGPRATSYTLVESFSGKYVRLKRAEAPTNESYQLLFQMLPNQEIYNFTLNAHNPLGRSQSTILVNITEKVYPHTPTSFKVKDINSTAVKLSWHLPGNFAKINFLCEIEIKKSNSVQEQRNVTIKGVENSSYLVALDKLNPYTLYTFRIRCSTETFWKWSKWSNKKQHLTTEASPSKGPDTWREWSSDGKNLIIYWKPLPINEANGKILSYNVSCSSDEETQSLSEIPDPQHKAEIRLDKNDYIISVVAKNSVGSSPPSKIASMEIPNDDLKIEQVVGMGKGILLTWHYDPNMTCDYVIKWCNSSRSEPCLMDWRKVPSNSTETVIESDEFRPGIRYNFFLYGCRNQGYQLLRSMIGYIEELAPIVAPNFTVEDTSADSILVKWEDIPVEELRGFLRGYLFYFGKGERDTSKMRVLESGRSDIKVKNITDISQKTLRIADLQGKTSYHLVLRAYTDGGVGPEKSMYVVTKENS

T2: recombinant human gp130 (human, UniProt P40189 23-619, limits assumed)
T2 construct: Coated on ELISA plates
T2 sequence (looked up): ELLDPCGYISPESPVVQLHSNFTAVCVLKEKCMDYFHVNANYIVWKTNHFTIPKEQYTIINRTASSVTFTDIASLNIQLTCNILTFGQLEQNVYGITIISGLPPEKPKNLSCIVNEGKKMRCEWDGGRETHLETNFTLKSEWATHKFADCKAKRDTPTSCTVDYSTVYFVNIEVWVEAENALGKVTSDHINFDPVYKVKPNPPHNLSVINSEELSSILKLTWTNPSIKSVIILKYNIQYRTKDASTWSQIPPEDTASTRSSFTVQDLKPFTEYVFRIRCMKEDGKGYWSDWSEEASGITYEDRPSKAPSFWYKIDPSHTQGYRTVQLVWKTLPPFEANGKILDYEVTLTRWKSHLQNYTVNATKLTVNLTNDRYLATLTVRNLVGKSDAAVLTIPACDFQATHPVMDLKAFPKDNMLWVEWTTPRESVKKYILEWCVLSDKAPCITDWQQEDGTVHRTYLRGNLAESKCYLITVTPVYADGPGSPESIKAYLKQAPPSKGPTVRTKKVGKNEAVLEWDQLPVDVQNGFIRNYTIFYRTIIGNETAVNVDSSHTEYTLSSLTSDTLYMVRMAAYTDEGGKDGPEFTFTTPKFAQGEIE

B1: A4 (rabbit monoclonal anti-LIF capture antibody) (antibody, V domains shown)
VH: EQLEESVGDLVKPGASLTLTCTASGFSFSGLYYMCWVRQAPGKGLEWIACIWTGSTDSTYYATWAKGRFTISKTSSTTVTLQMTSLTVADTATYFCARGGGVPGDGYALWGPGTLVTVSS
VL: ELVMTQTPASVSEPVGGTVTINCQASEDISSNLVWYQQKSGQPPKLLIYDASMLASGVPSRFKGSGSGTQFTLTISDLECADGATYYCQSYYVASSSYFVNGFGGGTEVV
notes: Rabbit monoclonal antibody; also called capture antibody A4; rabbit A4 monoclonal capture antibody
B2: mAb 3 (antibody, V domains shown)
VH: B1 VH
VL: B1 VL
notes: also called chimeric rabbit/human A4 antibody
B3: h5D8 (humanized 5D8 antibody comprising H2 and L2) (antibody, V domains shown)
VH: QVQLQESGGGLVKPGGSLRLSCAASGFTFSHAWMHWVRQAPGKGLEWVGQIKAKSDDYATYYAESVKGRFTISRDDSKNTLYLQMNSLKTEDTAVYYCTCWEWDLDFWGQGTMVTVSS
VL: DIVMTQTPLSSPVTLGQPASISCRSSQSLLDSDGHTYLNWLQQRPGQPPRLLIYSVSNLESGVPDRFSGSGAGTDFTLKISRVEAEDVGVYYCMQATHAPPYTFGQGTKLEIK
notes: also called H2L2; G (H2L2)
B4: human LIF (Leukemia Inhibitory Factor), expression host not stated at the place of use (ligand)
chain: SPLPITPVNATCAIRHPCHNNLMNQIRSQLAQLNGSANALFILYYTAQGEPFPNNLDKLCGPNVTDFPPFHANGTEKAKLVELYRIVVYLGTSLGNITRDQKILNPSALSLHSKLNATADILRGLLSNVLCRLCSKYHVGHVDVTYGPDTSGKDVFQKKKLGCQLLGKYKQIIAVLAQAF
notes: species not repeated there) and for the cell assays with endogenous or added human LIF; also called hLIF; Bt-LIF

Assays:
[1] = biological target: B4; test: competitive binding assays against LIF
human LIF (HEK-293) [2] = biological target: T3, human LIF (HEK-293) (human, UniProt P15018 23-202); test: MSD electrochemiluminescence sandwich assay (Example 23): A4 spot-coated as capture, Sulfo-Tag 7C3 (M017C3) as detection, rhLIF titrated with saturating h5D8
T3 construct: Bought recombinant glycosylated protein; also called hLIF (HEK 293); huLIF (mammalian)

human LIF (HEK-293) [3] = biological target: T3, human LIF (HEK-293); test: MSD electrochemiluminescence sandwich assay: mAb 3 (chimeric rabbit/human A4) as capture antibody, LIF titrated; detection antibody not named in the figure (7C3 in Example 23)
[4] = biological target: B4; test: cell-based or functional assay
[5] = biological target: T1, recombinant human LIFR (LIF receptor); test: BLI (Octet RED 96), control experiment, h5D8 on AHC biosensor
human IL-6 (E. coli) = biological target: T4, human IL-6 (E. coli) (human, UniProt P05231 30-212, limits assumed); test: BLI (Octet), h5D8 amine-coupled on AR2G biosensor, cytokine as analyte
T4 construct: also called huIL-6 (E. coli)

recombinant human gp130 = biological target: T2, recombinant human gp130; test: ELISA: LIF pre-incubated with B09 and added to a gp130-coated plate; the mAb part is detected with anti-rat IgG-HRP

T3 sequence (P15018 23-202 limits assumed): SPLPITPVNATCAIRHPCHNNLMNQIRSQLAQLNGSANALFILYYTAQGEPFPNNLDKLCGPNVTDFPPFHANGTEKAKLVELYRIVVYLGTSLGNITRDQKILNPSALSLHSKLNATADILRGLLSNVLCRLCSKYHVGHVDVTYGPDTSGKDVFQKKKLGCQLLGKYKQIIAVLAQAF
T4 sequence (P05231 30-212 limits assumed): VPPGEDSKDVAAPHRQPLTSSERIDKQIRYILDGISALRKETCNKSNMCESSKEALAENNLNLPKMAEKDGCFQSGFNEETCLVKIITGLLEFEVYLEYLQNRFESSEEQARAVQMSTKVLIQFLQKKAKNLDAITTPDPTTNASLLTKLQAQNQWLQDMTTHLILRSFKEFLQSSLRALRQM

B1: binds [1]; binds (human LIF (HEK-293) [2]).

B2: binds (human LIF (HEK-293) [3]).

For B3, the “IC50 for biological inhibition (pSTAT3, U-251 cells, serum starved)” value [4] was 490 picomolar, the binding result [5] was “no binding” and the binding result (human IL-6 (E. coli)) was “no binding”.

B4: binds (recombinant human gp130).
